The source of these data is paper PMC12147029, “Rare SNP in the HELB gene interferes with RPA interaction and cellular function of HELB”.

Usually Kd stands for the equilibrium constant for the complex coming apart.

The target of data set [1] is HELB WT (Homo sapiens, UniProt Q8NG08 1-1087). As to the kind of experiment: fluorescence anisotropy; 10 mM Mg(OAc)2, no nucleotide; 25 mM HEPES pH 7.5, 10 mM KOAc, 10 mM Mg(OAc)2, 0.1 mM EDTA, 2 mM beta-mercaptoethanol, 0.1 mg/ml BSA, 1 nM DNA, 30 min, room temperature. The following applies: protein: recombinant; tags: none (His-SUMO cleaved by Ulp1); label: 3'-6-carboxyfluorescein; single strand. (In general: Polarisation of emitted light reports the rotation of a fluorescent probe.)
Chain of HELB WT (Q8NG08 whole entry): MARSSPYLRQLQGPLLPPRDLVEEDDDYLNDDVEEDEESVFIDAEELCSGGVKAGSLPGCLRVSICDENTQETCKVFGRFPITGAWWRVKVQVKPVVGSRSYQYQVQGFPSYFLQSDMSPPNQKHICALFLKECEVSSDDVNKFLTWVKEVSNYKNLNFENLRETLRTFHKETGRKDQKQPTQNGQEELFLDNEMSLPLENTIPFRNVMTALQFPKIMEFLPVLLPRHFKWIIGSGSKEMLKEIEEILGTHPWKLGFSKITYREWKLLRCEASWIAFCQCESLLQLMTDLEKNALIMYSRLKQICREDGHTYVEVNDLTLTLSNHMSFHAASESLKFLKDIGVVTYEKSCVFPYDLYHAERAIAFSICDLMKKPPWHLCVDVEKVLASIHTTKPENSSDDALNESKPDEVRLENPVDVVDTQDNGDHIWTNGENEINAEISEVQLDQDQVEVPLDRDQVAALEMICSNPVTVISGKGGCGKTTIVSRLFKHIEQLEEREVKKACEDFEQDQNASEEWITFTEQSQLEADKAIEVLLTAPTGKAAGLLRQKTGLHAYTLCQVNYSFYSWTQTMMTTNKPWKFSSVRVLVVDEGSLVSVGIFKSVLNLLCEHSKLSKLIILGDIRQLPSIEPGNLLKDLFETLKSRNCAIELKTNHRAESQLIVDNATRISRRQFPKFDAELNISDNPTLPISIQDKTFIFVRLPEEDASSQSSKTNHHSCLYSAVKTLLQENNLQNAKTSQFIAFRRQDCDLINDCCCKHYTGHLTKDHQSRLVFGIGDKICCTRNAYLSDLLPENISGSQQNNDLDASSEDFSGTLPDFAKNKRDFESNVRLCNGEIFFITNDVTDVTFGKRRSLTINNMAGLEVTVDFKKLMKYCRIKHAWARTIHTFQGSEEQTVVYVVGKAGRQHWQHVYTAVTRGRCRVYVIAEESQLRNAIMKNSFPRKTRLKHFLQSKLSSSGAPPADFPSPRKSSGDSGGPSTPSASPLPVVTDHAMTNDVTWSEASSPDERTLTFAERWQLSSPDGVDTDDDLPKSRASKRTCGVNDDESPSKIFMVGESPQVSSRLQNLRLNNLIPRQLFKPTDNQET

In data set [2] the target is HELB D506G (Homo sapiens, UniProt Q8NG08 1-1087, D506G). Described as above. The note with it: protein: recombinant; tags: none (His-SUMO cleaved by Ulp1); label: 3'-6-carboxyfluorescein; single strand.
Chain of HELB D506G (Q8NG08 whole entry D506G): as the sequence (Q8NG08 whole entry) above, with D506G counted along it

As for TTTTTTTTTTTTTTTT (ssDNA) [3'-FAM-T16], the dissociation constant (Kd) in data set [1] came out at 3.4 ± 0.2 nM; in data set [2], 2.2 ± 0.4 nM.
